Assay results: patent publication US20060217290A1 (published 2006)

Legend:
human IGF-1 receptor = biological target: T1, human IGF-1 receptor (human, UniProt P08069 31-1367); assay: competitive binding SPA, displacement of [125I]IGF-1 from human IGF-1R membranes
T1 construct: whole, on cells; Assayed as membrane preparation (P1) of transfected 293EBNA cells, not as intact cells; also called IGF-R; insulin growth factor receptor

human insulin receptor = biological target: T2, human insulin receptor (human, UniProt P06213 28-1382); assay: competitive binding SPA, displacement of [125I] insulin from human IR membranes
T2 construct: whole, on cells; Assayed as membrane preparation (P1) of transfected 293EBNA cells, not as intact cells; also called IR; HIR

B1: A0^ArgA21^GlyB29^ArgB31^ArgB32^Lys-human insulin (ligand)
chain 1: RGIVEQCCTSICSLYQLENYCG
chain 2: FVNQHLCGSHLVEALYLVCGERGFFYTPRTRK
notes: Insulin analog; Disulfides A7-B7, A20-B19, A6-A11; also called ArgA0, GlyA21, ArgB29, ArgB31, LysB32-human insulin
Relative IGF1-R Affinity (Mean) (human IGF-1 receptor): 1.1 relative to recombinant human insulin | Relative IR Affinity (Mean) (human insulin receptor): 0.21 relative to recombinant human insulin
